First the molecules themselves.
T1: native PRLR expressing T47D cells (Homo sapiens, UniProt P16471)
T1 construct: a native PRLR expressing cell line (T47D); endogenous in cells; host or cells: T47D
T1 sequence (P16471 25-622): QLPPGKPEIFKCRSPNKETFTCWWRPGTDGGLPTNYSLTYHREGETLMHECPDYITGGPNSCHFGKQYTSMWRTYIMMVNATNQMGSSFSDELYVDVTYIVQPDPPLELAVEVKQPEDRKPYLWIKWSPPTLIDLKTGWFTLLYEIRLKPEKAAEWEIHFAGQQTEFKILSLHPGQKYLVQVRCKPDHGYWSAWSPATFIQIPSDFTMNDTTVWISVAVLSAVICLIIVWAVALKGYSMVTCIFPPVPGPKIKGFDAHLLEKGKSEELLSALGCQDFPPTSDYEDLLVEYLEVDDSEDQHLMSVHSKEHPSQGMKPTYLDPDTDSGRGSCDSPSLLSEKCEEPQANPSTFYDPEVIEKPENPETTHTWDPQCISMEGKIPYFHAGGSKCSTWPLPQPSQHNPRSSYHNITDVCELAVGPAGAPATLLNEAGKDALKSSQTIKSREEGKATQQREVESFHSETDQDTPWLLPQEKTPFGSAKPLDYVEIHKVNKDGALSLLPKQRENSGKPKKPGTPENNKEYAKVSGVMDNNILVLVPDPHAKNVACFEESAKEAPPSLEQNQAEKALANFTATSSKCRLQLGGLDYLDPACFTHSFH

T2: mouse PRLR on HEK293/mPRLR cells (Mus musculus, UniProt Q08501)
T2 construct: HA; expressed in transfected cells; host or cells: HEK293
T2 sequence (Q08501 20-608): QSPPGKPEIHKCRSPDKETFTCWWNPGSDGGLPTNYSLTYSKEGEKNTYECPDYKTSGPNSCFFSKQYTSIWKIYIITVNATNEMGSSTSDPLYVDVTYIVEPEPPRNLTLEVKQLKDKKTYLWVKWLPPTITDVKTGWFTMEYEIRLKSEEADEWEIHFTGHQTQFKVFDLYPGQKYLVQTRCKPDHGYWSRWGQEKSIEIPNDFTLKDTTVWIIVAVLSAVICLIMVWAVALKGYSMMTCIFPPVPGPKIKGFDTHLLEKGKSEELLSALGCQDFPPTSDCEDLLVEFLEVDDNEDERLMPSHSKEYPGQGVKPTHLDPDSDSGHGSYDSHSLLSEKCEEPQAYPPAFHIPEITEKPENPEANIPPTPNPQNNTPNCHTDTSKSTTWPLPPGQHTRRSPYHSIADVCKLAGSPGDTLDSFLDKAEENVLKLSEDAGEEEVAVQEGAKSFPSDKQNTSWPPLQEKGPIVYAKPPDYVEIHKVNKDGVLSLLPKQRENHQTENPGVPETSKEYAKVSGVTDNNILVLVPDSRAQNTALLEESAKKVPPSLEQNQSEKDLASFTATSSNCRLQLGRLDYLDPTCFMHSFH

T3: human PRLR on HEK293/hPRLR cells (Homo sapiens, UniProt P16471)
T3 construct: HA; expressed in transfected cells; host or cells: HEK293
T3 sequence (P16471 25-622): T1 sequence (P16471 25-622)

T4: monkey PRLR on HEK293/mfPRLR cells (Macaca fascicularis, UniProt A0A2K5WXK1)
T4 construct: HA; expressed in transfected cells; host or cells: HEK293
T4 sequence (A0A2K5WXK1 25-619): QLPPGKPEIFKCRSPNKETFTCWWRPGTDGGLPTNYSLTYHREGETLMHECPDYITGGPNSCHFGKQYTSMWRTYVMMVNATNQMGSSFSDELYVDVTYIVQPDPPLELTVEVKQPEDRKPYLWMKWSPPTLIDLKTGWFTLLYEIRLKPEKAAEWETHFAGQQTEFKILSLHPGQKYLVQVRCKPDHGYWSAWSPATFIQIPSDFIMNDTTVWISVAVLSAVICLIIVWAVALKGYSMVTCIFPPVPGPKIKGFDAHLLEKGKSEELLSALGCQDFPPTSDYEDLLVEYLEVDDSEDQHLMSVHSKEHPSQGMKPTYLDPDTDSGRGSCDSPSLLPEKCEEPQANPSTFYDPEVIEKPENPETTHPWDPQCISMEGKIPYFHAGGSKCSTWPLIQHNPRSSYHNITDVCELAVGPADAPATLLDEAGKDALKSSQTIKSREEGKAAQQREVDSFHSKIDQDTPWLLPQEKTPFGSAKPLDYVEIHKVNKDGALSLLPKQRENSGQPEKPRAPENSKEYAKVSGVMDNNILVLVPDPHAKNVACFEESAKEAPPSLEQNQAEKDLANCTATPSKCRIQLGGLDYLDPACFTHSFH

B1: H1H6960N: anti-PRLR antibody, human IgG1 Fc form of H2M6960N of Table 1; HCVR/LCVR SEQ ID NOs 322/330 (antibody, V domains shown)
VH: EVQLVESGGGLVKPGGSLRLSCAASGITFSSYSMNWVRQAPGKGLEWVSSISTRSSLIHYADSVKGRFTISRDNAKNSLYLQMNSLRDEDTAVYYCARWDAAAAFDYWGQGTLVIVSS
VL: DIQLTQSPSFLSASVGDRVTITCWASQGISSYLAWYQQKPGKAPKLLIYVASTLQSGVPSRFSGSGSGTEFTLTISSLQPEDFATYFCQQLNSYPLTFGGGTKVEIK
modifications: human IgG1 Fc
B2: H1H6959N2: anti-PRLR antibody, human IgG1 Fc form of H2M6959N2 of Table 1; HCVR/LCVR SEQ ID NOs 306/314 (antibody, V domains shown)
VH: EVQLVESGGGLVQPGRSLRLSCAASGFTFDDYAMHWVRQAPGKGLEWVSGISWHSGIIGYADSVKGRFTISRDNAKNSLYLQMNSLRTEDAALYYCAKIGSYFYFDSWGQGTLVTVSS
VL: EIVLTQSPGTLSLSPGERATLSCRASQSVSSNYLAWYQQKPGQAPRLLIYGASSRATGIPDRFSGSGSGTDFTLTISRLEPEDFAVYYCQQFGSSGYTFGQGTNLEIK
B3: H1H6966N: anti-PRLR antibody, human IgG1 Fc form of H2M6966N of Table 1; HCVR/LCVR SEQ ID NOs 338/346 (antibody, V domains shown)
VH: QVQLVQSGAEVQKPGASVKVSCKVSGYTLTALSIHWVRQAPGKGLEWMGNFDPGDGETIHAQKFQGRVTMTGDTSTDTAYMELSSLRSEDTAVYYCVGVTFDYWGQGTLVTVSS
VL: EIVMTQSPATLSVSPGERATLSCRASQSVASNLAWYQQKPGQAPRLLLYGASTRATGIPARFSGSGSGTEFTLTISSLQSEDFALYYCQHYNNWPLTFGGGTKVEIK
modifications: human IgG1 Fc

This is an account of results in patent publication US10925971B2, “Methods of treating PRLR positive breast cancer” (Regeneron Pharmaceuticals, Inc., priority 2016, dated 2021).

One test deals with HEK293 parental cells. Kind of test: FACS cell surface binding.
Settings: not given
Also noted: species or system human. On the procedure:
(§1) The ability of anti-PRLR antibodies to selectively bind PRLR expressing cell lines was next determined. Human, monkey Macaca fascicularis, and mouse PRLR constructs with an HA tag were stably introduced into HEK293 cells via Lipofectamine 2000-mediated transfection methodology. Transfectants (HEK293/hPRLR, HEK293/mfPRLR and HEK293/mPRLR) were selected for at least 2 weeks in complete growth media plus G418.
(§2) Cell surface expression of PRLR on 293/hPRLR cells was assessed via FACS analysis. Briefly, 1×10^5 cells were incubated with 10 μg/ml of Control antibody I, or an isotype control for 30 min on ice in antibody dilution buffer. Following two washes with antibody dilution buffer, cells were incubated with 10 μg/ml of PE conjugated anti-human secondary antibodies for 30 min on ice. Following two additional washes, samples were run on a Hypercyt® cytometer and analyzed in ForeCyt™ (IntelliCyt, Albuquerque, N. Mex.). The mean fluorescence intensities (MFI) were expressed as fold change above isotype control levels (background). FACS binding confirmed that Control I selectively bound to 293/hPRLR expressing cells with MFIs that were 30 fold above background (isotype ctrl) levels and less than 2 fold binding on parental cells.
(§3) Next, the anti-PRLR antibodies were tested via FACS for selective binding to the engineered overexpressing PRLR HEK293 cell lines, as well as to non-expressing HEK293 cells and a native PRLR expressing cell line (T47D).
Regarding B1, the “FACS Cell Binding” value came out at 1 Fold Above Background.
In the case of B2, the “FACS Cell Binding” value stood at 1 Fold Above Background.
Consider B3, for which the “FACS Cell Binding” value is 1 Fold Above Background.

The target in a further test is T1, native PRLR expressing T47D cells. Kind of test: FACS cell surface binding.
Settings: not given
The method, then: as §2, §3
For the molecule B1, the “FACS Cell Binding” value turned out to be 33 Fold Above Background.
Still for that read-out and setting: next, B2: 9 Fold Above Background; B3: 31 Fold Above Background.

For the next test, the target named is T5, dimeric human PRLR (hPRLR.mFc; SEQ ID NO:402) (Homo sapiens, UniProt P16471).
T5 construct: dimeric (hPRLR.mFc)
T5 sequence (P16471 with tags, fused parts or gaps): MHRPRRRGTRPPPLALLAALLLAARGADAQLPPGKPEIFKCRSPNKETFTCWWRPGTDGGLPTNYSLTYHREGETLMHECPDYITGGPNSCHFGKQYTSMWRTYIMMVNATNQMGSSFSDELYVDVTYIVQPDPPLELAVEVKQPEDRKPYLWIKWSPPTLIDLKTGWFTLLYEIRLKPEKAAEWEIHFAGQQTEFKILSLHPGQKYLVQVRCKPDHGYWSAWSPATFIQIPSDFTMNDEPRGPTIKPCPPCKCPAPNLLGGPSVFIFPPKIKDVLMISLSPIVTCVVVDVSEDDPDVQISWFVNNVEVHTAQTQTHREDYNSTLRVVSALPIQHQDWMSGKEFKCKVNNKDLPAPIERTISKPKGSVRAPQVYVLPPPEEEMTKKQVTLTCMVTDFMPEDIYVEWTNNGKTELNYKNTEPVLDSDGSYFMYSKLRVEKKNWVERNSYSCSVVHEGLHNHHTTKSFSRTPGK
Kind of test: Surface plasmon resonance (Biacore T200), antibody-capture format. Format: binding. To be noted: 25° C., analyte hPRLR.mFc. On the procedure:
(§4) Antibodies, expressed as human IgG1 Fc (i.e., “H1H” designations), were captured onto an anti-human Fc sensor surface (mAb-capture format), and soluble monomeric (hPRLR.mmh; SEQ ID NO:401, or Macaca fascicularis (mf) PRLR.mmh; SEQ ID NO:403) or dimeric (hPRLR.mFc; SEQ ID NO:402) PRLR protein was injected over the sensor surface. Measurements were conducted on a T200 Biacore instrument. Kinetic association (ka) and dissociation (kd) rate constants were determined by processing and fitting the data to a 1:1 binding model using Scrubber 2.0 curve fitting software.
In the case of B1, the ka was determined as 252000 M/s and the kd was found to be 3.56e-05 s⁻¹.
B2 showed a ka of 359000 M/s and a kd of 0.000518 s⁻¹.
With B3, the ka worked out at 931000 M/s and the kd amounted to 4.08e-05 s⁻¹.

The test is the same for the next values; noted with them: 37° C., analyte hPRLR.mFc.
Molecule B1 showed a ka of 294000 M/s and a kd of 0.000147 s⁻¹.
On the same counts, the results for B2 are 509000 M/s and 0.0023 s⁻¹.
For B3 the same measures were 1.88e+06 M/s and 0.000127 s⁻¹.

In a further test the target is T6, monomeric human PRLR (hPRLR.mmh; SEQ ID NO:401) (Homo sapiens, UniProt P16471).
T6 construct: soluble monomeric (hPRLR.mmh); mmh (myc-myc-hexahistidine) (C)
T6 sequence (P16471 with tags, fused parts or gaps): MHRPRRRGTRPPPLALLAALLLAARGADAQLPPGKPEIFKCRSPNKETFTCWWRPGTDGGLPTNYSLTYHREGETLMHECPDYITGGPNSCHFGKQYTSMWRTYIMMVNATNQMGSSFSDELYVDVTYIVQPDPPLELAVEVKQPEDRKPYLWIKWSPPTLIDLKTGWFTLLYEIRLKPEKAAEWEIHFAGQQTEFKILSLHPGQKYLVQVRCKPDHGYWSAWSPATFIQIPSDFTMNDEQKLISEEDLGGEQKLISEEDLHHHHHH
Described as above. Format: binding. The conditions noted are these: 25° C., analyte hPRLR.mmh. The method, then: as §4
In turn, B1 returned a ka of 108000 M/s and a kd of 0.000729 s⁻¹.
B2 yielded a ka of 179000 M/s and a kd of 0.036 s⁻¹.
On the same counts, the results for B3 are 852000 M/s and 0.000257 s⁻¹.

The test is the same for the next values; noted with them: 37° C., analyte hPRLR.mmh.
The molecule B1 registered a ka of 122000 M/s and a kd of 0.00198 s⁻¹.
Regarding B2, the ka amounted to 40600 M/s and the kd is 0.0277 s⁻¹.
For B3 the same measures were 1.58e+06 M/s and 0.00096 s⁻¹.

The test system of a further test is Macaca fascicularis PRLR (mfPRLR.mmh; SEQ ID NO:403). The description is as above. To be noted: 25° C., analyte mfPRLR.mmh. The test is classed as binding. The method, then: as §4
Macaca fascicularis PRLR (mfPRLR.mmh; SEQ ID NO:403), sequence (as listed by the source): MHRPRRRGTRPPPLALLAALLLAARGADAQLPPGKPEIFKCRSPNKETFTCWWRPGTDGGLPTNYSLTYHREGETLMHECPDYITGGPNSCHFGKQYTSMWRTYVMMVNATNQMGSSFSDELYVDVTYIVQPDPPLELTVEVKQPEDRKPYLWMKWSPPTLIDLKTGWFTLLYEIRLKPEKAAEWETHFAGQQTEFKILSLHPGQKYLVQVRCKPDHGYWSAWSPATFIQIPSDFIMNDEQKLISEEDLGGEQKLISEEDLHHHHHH
B1 came in with a ka of 94000 M/s and a kd of 0.000583 s⁻¹.
For the molecule B2, the ka was found to be 129000 M/s and the kd amounted to 0.0167 s⁻¹.
In the case of B3, the ka was found to be 782000 M/s and the kd turned out to be 0.000325 s⁻¹.

Still in this test, the particulars now being: 37° C., analyte mfPRLR.mmh.
On to B1, for which the ka came to 86400 M/s and the kd was found to be 0.00128 s⁻¹.
On the same counts, the results for B2 are 44600 M/s and 0.0165 s⁻¹.
B3 showed a ka of 1.22e+06 M/s and a kd of 0.0012 s⁻¹.

The target in a further test is T2, mouse PRLR on HEK293/mPRLR cells. Kind of test: FACS cell surface binding.
Settings: not given
On the procedure:
as §1, §2, §3
Take B1: the “FACS Cell Binding” value was 1 Fold Above Background.
As for B2, the “FACS Cell Binding” value came out at 2 Fold Above Background.
Regarding B3, the “FACS Cell Binding” value came out at 1 Fold Above Background.

A further test addresses T3, human PRLR on HEK293/hPRLR cells. Briefly: FACS cell surface binding.
Settings: not given
On the procedure:
as §1, §2, §3
Take B1: the “FACS Cell Binding” value was 29 Fold Above Background.
Consider B2, for which the “FACS Cell Binding” value is listed as 6 Fold Above Background.
With B3, the “FACS Cell Binding” value worked out at 29 Fold Above Background.

For a further test, the target named is T4, monkey PRLR on HEK293/mfPRLR cells. Briefly: FACS cell surface binding.
Settings: not given
On the procedure:
as §1, §2, §3
Consider B1, for which the “FACS Cell Binding” value is listed as 23 Fold Above Background.
Still for that read-out and setting: as for B2, the figure is 11 Fold Above Background; as for B3, 18 Fold Above Background.
